Laboratory results from the nanobody polyreactivity screen of Harvey et al. (2022).

test: yeast display, Sf9 membrane polyspecificity reagent, FACS + sequencing; frameworks hold sequencing errors
How it was run: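 A nanobody's polyreactivity label depends on the gate it was sorted from. Yeast display cells were stained with 10% biotinylated, detergent-solubilized Sf9 membrane reagent for 1 hour at 4 °C, enriched on streptavidin microbeads and sorted by FACS. The low and high (top ~1%) gates were set on anti-HA fluorescence for expression and streptavidin fluorescence for reagent binding.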

Sequence	polyreactivity (PSR sort gate)
QVQLVESGGGLVQAGGSLRLSCAASGSTLNRNVMGSYRQAPGKERELVAVITYGVGSTYYADSVKGRFTISRDNAKNTVYLQLNSLKPEDTAVYYCNKDPLVFDYWGQGTQVTVSS	low polyreactivity
QVQLVESGGGLVQAGGSLRLSCAASGSTLNRYAMGWYRQAPGKERELVAAISISGGRTYYADSVKGRFTISRDNAKNTVYLQMNSLKPEDTAVYYCADGNYLYSYGYGYWGQGTQVTVSS	high polyreactivity
QVQLVESGGGLVQAGGSLRLSCAASGSTLQVNAMGWYRQAPGKETELVATISFSGGSTYYADSVKGRFTISRDNAMNTVYLQMNSLKPEETAAYYCNADSFVSWYNQFWYQATYDYWGQGTKVTVSS	low polyreactivity
QVQLVESGGGLVQAGGSLRLSCAASGSTLRAYAMGWYRQAPGKDRELVAAISGRGGRTYYADSVKGRFTISRDNAKNTVYLQMNSLKPEDTAVYYCATRYREPYVWPYDYWGRGTQVTVSS	high polyreactivity
QVQLVESGGGLVQAGGSLRLSCAASGSTLRGNAMGWYRQAPGKEREFVAAISSSGGRTYYADSVKGRFTISRDNAKNTVYLQMNSLKPEDTAVYYCNADPYNYSRRYRLRKYGYWGQGTQVTVSS	high polyreactivity
QVQLVESGGGLVQAGGSLRLSCAASGSTLRHNVMGWYRQAPGKERELVAAITFSGGSTTYADSVKGRFTISRDNAKNTVYLQMNSLKPEDTAVYYCNAVYAGAGSFHPGYGYWGQGTQVTVSS	low polyreactivity
QVQLVESGGGLVQAGGSLRLSCAASGSTLRRYAMGWYRQAPGKERELVAAITYRSGSTYYADSVKGRFTISRDNAKNTVYLQMNSLKPEDTAVYYCAKVGYVSKYWFAGDYWGQGTQVTVSS	high polyreactivity
QVQLVESGGGLVQAGGSLRLSCAASGSTLRSYVMGWYRQAPGKERELVAAISIRGDSTYYADSVKGRFTISRDNAKNTVYLQMNSLKPEDTAVYYCAAASNRYPNSWYYYWGQGTQVTVSS	high polyreactivity
QVQLVESGGGLVQAGGSLRLSCAASGSTLRYYAMGWYRQAPGKEREWVAAISTGGSTYYADSVKGRFTISRDNAKKTVYLQMHSLKPEDTAVYYCAAEPWANTPGEAGSPFDYWGQGTQVTVSS	low polyreactivity
QVQLVESGGGLVQAGGSLRLSCAASGSTLSDNAMGWYRQAPGKERELVASISWSGGTYYADSVKGRFTISRDNAKNTVYLQMNSLKPEDTAVYYCAAYIYYNYSRQYWFDYWGQGTQVTVSS	low polyreactivity
QVQLVESGGGLVQAGGSLRLSCAASGSTLSEYAMGWYRQAPGKERELVAAISWSGGSTYYADSVKGRFTISRDNAKNTVYLQMNSLKPEDTAVYDCAAKRYSSKRGLDYWGQGTHVTVSS	high polyreactivity
QVQLVESGGGLVQAGGSLRLSCAASGSTLSLYAMGWSRQAPGKERELVAAITSSGGTYYADSVKGRFTISRDNAKNTVYLQMNSLKPEDTADYYCARSRYRAQGKFDYWGQGTQVTVSS	high polyreactivity
QVQLVESGGGLVQAGGSLRLSCAASGSTLSQNAMGWYRQAPGKEREFVADISGAGDSTYYADSVKGRFTISRDNAKNTVYLQMISLKPDDTAVYYCATPSPHVGLKWEYDYWGQGTQVTVSS	low polyreactivity
QVQLVESGGGLVQAGGSLRLSCAASGSTLSVNAMGWYRPAPGKERELVAAIDFDGGDTYYADSVKGRFTISRDNAKNNVYLQMNSLKPEDTAVYYCAADIGGQYDYLADDYWGQGTQVTVSS	low polyreactivity
QVQLVESGGGLVQAGGSLRLSCAASGSTLSYNAMGWYRQAPGKERELVAAISGRGGSTSYADSVKGRFTISRDNAKNTVYLQMNSLKPEDTAVYYCNRYSRSAYEWEYYSWGQGTQVTVSS	high polyreactivity
QVQLVESGGGLVQAGGSLRLSCAASGSTLSYYAMGWYRQAPGKERELVAAISFSGGITYYADSVKGRFTISRDNAKNTVYLQMNSLKPEDTAVYYCNAEYQVYRAYVIWYDYWGQGTQVTVSS	high polyreactivity
QVQLVESGGGLVQAGGSLRLSCAASGSTLTRNTMGCYRQAPAKERELVATNTRSGGSTYYADSVKGRFTISRDNAKNTVYLQMNSLKPEDTAVYYCAVRRQTFRYVYPGMDYWGQGTQVTVSS	high polyreactivity
QVQLVESGGGLVQAGGSLRLSCAASGSTLTSNAMGWYRQAPGKERELVAAIRSGGSTNYADSVKGRFTISRDNAKNTVYLQMNSLKPEDTAVYYCNKDFLWQGYGYSRVSYDYWGQGTQVTVSS	low polyreactivity
QVQLVESGGGLVQAGGSLRLSCAASGSTLTYNAMGWYRQAPGKERELVAAIDWDGDTTYYADSVKGRFTISRDNAKNTVYLQMNSLKPEDTAVYYCAAEFYSLGKAIYEYWGQGTQVTVSS	high polyreactivity
QVQLVESGGGLVQAGGSLRLSCAASGSTLTYYTMGWYRQAPGKERELVARISWSSGRTYYADSVKGRFTISRDNAKNTVYLQMNSLKPEDTAVYYCNADRTYYRGLDYWGQGTQVTVSS	high polyreactivity
QVQLVESGGGLVQAGGSLRLSCAASGSTLVGNTMGWYRQAPGKERELVAAITGVGSRNYADSVKGRFTISRDNAKNTVYLQMNSLKPEDTALYYCAAETWYSVLWEEGYDYWGHGTQVTVSS	low polyreactivity
QVQLVESGGGLVQAGGSLRLSCAASGSTLVIYAMGWYRQAPGKERELVAAINFSDGSTSYADSVKGRFTISRDNAKNTVYLQMNSLKPEDTAVYYWGQGTQVTVSS	low polyreactivity
QVQLVESGGGLVQAGGSLRLSCAASGSTLVIYAMGWYRQAPVKEREFVAAIRCSPGRTYYADSVKGRFTISRDNAKNSVYLQMNSLKPEDTAVYYCAVEYQSWKGWWFDYWGQGTQLTVSS	high polyreactivity
QVQLVESGGGLVQAGGSLRLSCAASGSTLVKYAMGWYRQAPGKERELVAAISWSGGRTYYADSVKGRFTISRDNAKNTVYLQMNSLKPEDTAVYYCAARSTRFYTPGYYYWGQGTQVTVSS	high polyreactivity
QVQLVESGGGLVQAGGSLRLSCAASGSTLVSNAMGWYRQAPGKERELVASISYSATSTYYADSVKGRFTISRDNAKNTVYLQMNSLKPEDTAVYYCAAKTFRSRYYYWGQGTQVTVSS	high polyreactivity
QVQLVESGGGLVQAGGSLRLSCAASGSTLVTYAMGWYRQAPGKERELVAGISSGGSTNYADSVKGRFTISRDNAKNTVYLQMNSLKPEDTAVYYCAAQGSLTWWAATFIYDYWGQGTQVTVSS	low polyreactivity
QVQLVESGGGLVQAGGSLRLSCAASGSTLVYNAMGWYRQAPGKERELVAAISRSGGITYYADSVKGRFTISRDNAKNTVYLQMNSLKPEDTAVYYCNAVVRTRYRPGYDYDYWGQGTQVTVSS	high polyreactivity
QVQLVESGGGLVQAGGSLRLSCAASGSTLVYNDMGWYRQAPGKEREFVAAIRSNDGSTYYADSVKGRFTISRDNAKNTVYLQMNSLKPEDTAVYYCNKDVWDGYDWPEFDYWGQGTQVTVSS	low polyreactivity
QVQLVESGGGLVQAGGSLRLSCAASGSTLWAYAMGWYRQAPGKERELVASISSGGNTNYADSVKGRFTISRDNAKNTVYLQMNSLKPEDTAVYYCAAVGYLYFWYPYDYWGQGTQLTVSS	low polyreactivity
QVQLVESGGGLVQAGGSLRLSCAASGSTLWYNARGWYRDAPGKERELVAAITTSTDSTYYADSVKGRFTISRYNAKNTVYLQMNSLKPEDTAVYYCAAVLHLNGGGKAYDYWGLGTQVTVSS	low polyreactivity
